According to the DeepSol protein solubility set:

Assay: soluble on expression in E. coli; label from the status in PepcDB or PDB records

Sequence	soluble on expression in E. coli
GALPDPVKPKAPKAVNPFHLGMAGYTFVNFDLDTTLKTLERLDIHYLCIKDFHLPLNSTDEQIRAFHDKCAAHKVTGYAVGPIYMKSEEEIDRAFDYAKRVGVKLIVGVPNYELLPYVDKKVKEYDFHYAIHLHGPDIKTYPDATDVWVHTKDLDPRIGMCLDVGHDLRNGCDPVADLKKYHTRVFDMHIKDVTDSSKAGVGIEIGRGKIDFPALIRMMREVNYTGMCSLEYEKDMKDPFLGIAESIGYFKAVSDLT	soluble
AIAATSELSCEVSEENCERREAFWAEWKDLTLSTRPEEGCSLHEEDTQRHETYHQQGQCQVLVQRSPWLMMRMGILGRGLQEYQLPYQRVLPLPIFTPAKMGATKEEREDTPIQLQELLALETALGGQCVDRQEVAEITKQLPPVVPVSKPGALRRSLSRSMSQEAQRG	soluble
MGSDKIHHHHHHMNLLDHLRRMAGNNLWSNDRLYRAVLALKPGEFEAERTSFFPSIKATLNHVLAVDYLYLDFLEEGGVGAAAHDDFVPFDEPQPLFAAQMAADRRLIAFCDGLSEADLDRRVITDRRADGMIPERIGDILAHVFLHDIHHRGQVHAMLSGTSVVPPQLDEFLLDYDAKLRKAEVERLGL	not soluble
MAHHHHHHMPRGGHKGGLFPVSGIKWGMNERIKKRGLYHNRREDILTPRWGYRYENENKKYLPDGSSKSFDIDSSRAWPVDKAQWKYYYNINESRYLWPSICANNPEIKNYILNIIENTDTYFSGIGLEQVSNERKNKNLKKDYTNNSYYKNNYLYNLVHELNNTIYPQIEINLNNNLKRGRIQKLYDIIKEENIWKTTQKIKTPESENVFPYVDDNATLIRELPLSEILYTKSNLRLKVRRHPKWMNVQFLKKKVKIPYLYR	not soluble
MNNNVITRFAPSPTGFLHIGSARTALFNYLFARHHNGKFLLRIEDTDKERSTKEAVEAIFSGLKWLGLDWNGEVIFQSKRNNLYKEAALKLLQNGKAYYCFTRQEEIERQRQQALENKQHFIFNSEWRDKDPSIYPTDIKPVIRLKTPREGSITIHDTLQGEVVIENSHIDDMVLLRADGTATYMLAVVVDDHDMGITHIIRGDDHLTNTARQLAIYQAFGYAVPSMTHIPLIHGADGAKLSKRHGALGIEAYKDMGYLPESLCNYLLRLGWSHGDDEIISMTQAIDWFNLDSLGKSPSKLDFAKMNSLNAHYLRMLDNDSLTSKTVEILEQNYNTLLRHLPYREEFGGNTERSTAAYIDIREDASTGLTYKLPLAVELPKKFKISEQEIGYIKQAMPSLLVRSETLLELTRLAQIYLVDSPIIYSQDSKEIIENCDKNLIKQIIENLSELEQFDKESVQNKFKEIAAANDLKLNDIMKPVRALITGMTASPSIFEIAEILGKENILKRLKII	soluble
MGSMVCDVCHHECETAKELESHRQSCINGQCPYCMTITEATESALQAHYSICKLTGR	soluble
MVTLASHLDACPDAAIWGSSKTENLGVEKIIVNVISNSNIRYVLVCGTESRGHLAGHSLLAIHANGIDEQGRITGSQGAIPFIENISGTAVERFQQQVTVLNRIGLNDPEEIRRIVEDYRDKGEAYPEEPMLVCAPKKRQTSFAVPTSGDVIISGEFVMDSKAGIIYTAESL	not soluble
MGSDKIHHHHHHMEEITKIESIDQYDQLFGLETLHPLVNVIDFSKATKTVDYYRMNIGFYSLFLKDAKCGDLRYGRKYYDYQEGTVVCMAPGQVIGIDNRKQTPIRTKSIGLLFHPDLIRGTSLGQNIKHYSFFSYEVNEALHLSEQEREIVTDCIHKIQIELEHAIDKHSKQLIVRNIELLLDYCMRFYERQFITRNQANKDIIVKFEQLLDEYFQNQTALTEGLPSVKYFADKVCLSSNYFGDLIKKETGKTAQEYIQHRIIELAKERILEGSQTVSQIAYELGFQYPQHFSRLFKKNVGCTPNEYKQQN	not soluble
GSDDNKTTGATYDPNQPVTVESFMPVEGKLREKVIVKGSNFGTDKSKVKVYFVDEAAERLSTVIGIDNNTLYCLAPRQLPGGNRIKVIVDGKEVTTDGTFKYEQAQNVSTISGSASKDGNDDGDLASAKFKYMWGIAAVGNNTVLAYQRDDPRVRLISVDDNKVTTVHPGFKGGKPAVTKDKQRVYSIGWEGTHTVYVYMKASGWAPTRIGQLGSTFSGKIGAVALDETEEWLYFVDSNKNFGRFNVKTQEVTLIKQLELSGSLGTNPGPYLIYYFVDSNFYMSDQNLSSVYKITPDGECEWFCGSATQKTVQDGLREEALFAQPNGMTVDEDGNFYIVDGFKGYCLRKLDILDGYVSTVAGQVDVASQIDGTPLEATFNYPYDICYDGEGGYWIAEAWGKAIRKYAVE	soluble
MFENNETLIVWSETDVMDLALSFQEKSGCEELWQKICEVQGRDPGDPDATFDDGDDSDVGEMPSSASRLQLPPIEIGRLGELDALLHMHLTTNSAREKMTLAIENDNVVTKLCEVFRMCEDIEHTEGLRTFYSIVKNLFMLNRNTVIEMLLDDNNIKDVIGMFEFDPAYKHPRKHRDFVYKKAKFREVLNISCDELRDKIHRLYRAQYIQDACLPSLGLFEENLLSTLSSHVFFCRVDIVTLLQKDKKAMSELFGQLISEETDVIRRRDLALFLKEMISLSTSIPSNGPAATKETFFKVLQNMFNSEILDSLEPCFKSPDHETRAVMVDVLRTMVDANAQMIRDFLLKQSKTKDKNEDVLLNMMIRHLLTDIDVHLTSGSEIVLIMKTLLDPENMTTVKSERSDFLQLFYNRCYESLLKPILENVSGGNIKKDDYMIANRQSVILRLLTFCVEHHSFSMRQRCVSNDLMNKVLVLLKSKHSFLVLSALKLLQRVVTVKDDKYIRYIVKEKVLDPVMECFRKNGNRYNIINSSVLHLFEFVRSEDVRPLIKYVVENHMEVVDSVNYVKTFKEIKIRYDQHRDREETMSVRSEDNSLASPRSFRKDRNEDQWFDEDEDLEVGTMLESIEKDSVAVSPKKEEAGQRKTGMEPMFPSLLKRKNAFDDDEAPVFGGGSAAVINNTEKKIVIKVNSDRSPSRTPSPASSPRASSSPGPSRDDEVTSSQNNKESSPTPTVKSLVDYDESDDSDDDPPSPDAVPSSSTGSPEKEGDSADGKKGDSPEYNDVSSTSNEEKFDSRNGAPVTNENGGVEAAAPTVEISRKRTSDGIDPDAKRIRTEETAPAATATVSQA	not soluble
NHINPVNPAEPALYLPTQYDVREFAEKTKNETVYVFTSVGEYWPLAWYLRDHRAYFITTGVEGRSFISGNYIVVNATNDMRLDKTNLEFVETMVVRCWTFWTTPELQRIPAFLAFREPLTDVSCMNFSVYRAI	not soluble
SLERSVNGKIQKADIFSVPVSFNANEVTHVDTPQEALAASLNKFGEVNLEYMENLSETGRQELLTQLENRIFYNPMMKNYEIKDRFIAGNVVAKVEWIENYLKDYPDDDASKKSLEALQKAIPEPISFELLDFNLGERWIPVSVYEEFAGYLFEAKAHIHYTESIDEFSVSFEETNANITDRYYVKGEKRGYYGNDLLKHALHNTVPDITKTVQDEEGNDIKVRDAEAIQLADAKINEIRSAFTGWLNEQLPEFKQHLADMYNRKFNCYVRPDYDGSLQSFPFLDLKGLGIPSLYDSQ	not soluble
GAMDISPTNHHEMLQNLQTVVNELYREDVDYVADKILTRQTVMQESIARFHEIIAIDKNHLRAVEQAIEQTMHSLNAQIDVLTANRAKVQQFSSTSHVDDEDVNSIAVAKTDGLNQLYNLVAQDYALTDTIECLSRMLHRGTIPLDTFVKQGRELARQQFLVRWHIQRITSPLS	soluble
MAKPLMAKATAVWLVDNTTISFKQIADFVGMHELEIQGIADGDVAAGVKGFDPIANNQLTQEEIDKAEQNPLHKLKLKFNPAAAGEEKRRGPRYTPLSKRQDRPNAILWLVKFHPELSDGQIAKLVGTTKPTIQSIRERTHWNISNMQPIDPVALGLCRQSELDSVVQKAAAKKAAEGGVMSDDERRKLVSTEQSLGMDTGPRIPTAIEGLENFSLSEPISTSDDDEEDHRSIADADSFFNLPKGGTDDEDEDDDPRYLEHHHHHH	soluble
KIIVKHVTVIGGGLMGAGIAQVAAATGHTVVLVDQTEDILAKSKKGIEESLRKVAKKKFAENPKAGDEFVAKTLSTIATSTDAASVVHSTDLVVEAIVENLKVKNELFKRLDKRAAEHTIFASNTSSLQITSIANATTRQDRFAGLHFFNPVPVMKLVEVIKTPMTSQKTFESLVDFSKALGKHPVSCKDTPGFIVNRLLVPYLMEAIRLYERGDASKEDIDTAMKLGAGYPMGPFELLDYVGLDTTKFIVDGWHEMDAENPLHQPSPSLNKLVAENKFGKKTGEGFYKYKAA	soluble
MGSDKIHHHHHHMEKEIPEMFASNYQDWQPIYNWDTCKAGRKEYGKFLCSFLTSSKDDLVVNLNGSWGTGKTELLRRLYVELAERQHPVVYINAWESDFCDDALSVISSEFLNQLEVAFGHNGDPKWLSKFNNLKQKLGKALKFGSLGATMNGEPNAATLLGATSAAVNELPDLASAAVSDNNIRLIEKISSNHANRVQAMKEVREQISALADTMQMVCEAELPIVVLVDELDRCRPTYAIEMLEVIKHFFEARGCVFLVATDTVALEHSIKAVYGASFESEKYLRRFFDRRIALPPLSITQYLKAKALDFTRYQTDQLRLFPFTAINAQLIKIFALLFENAQMSLRDVEQSLQKCVASLEYLQSLGTRPQIVNVIVLMMGSLSSNYRPNRFRIDLQIKYFPMELV	not soluble
MADDLNAGPKANREFKNSVFTLLFNEEEAIRDISGAVGAMLGKEISPNTPIKKTTLQNALLGGKLNDLSFVLDDKLIVLIEHQSTINKNMPLRMLHYICEIYNHLYEKKDLYRKKKILIPKPVFIVLYNGEEDIKDFEEYLLSDLFKDFDISKEQPYLELRVQVRNINKGHSAEIVKQSPLLLDYVAFVEEVREVNKEEGMTPELAMEKAIENCIKKGILTVFLTRHKEEVMKMLVAEWDYDLDREVARDEGREEGREEGRTEETANNIKDLYRIGVSIETIAKAFGLSEHDVKDILGL	soluble
MHSLGWDIWNAVQPKEFYKGFLRRSIRPDGRKLSEYRDITLRKGPLVTTVDGSANASIGRTVALIGIQPKVIEWKETKKGSARSIVGQHCSLQVEFPSVCHRDIRSGRTLEEALLVKESLENVLEQILERDSFCIVPDKFYWHLQITAYCLSLDGNVIETFLLALYGALLDLQLPVVRASTSGDLLTLDPNQPKVTLPMKKLEDWPWVVPIGLFWNGPSEYYAVLDLSEEEENNMSSIVWIWNSQRGDKLAISKQKVGPLSVNILQEVLQLVKAHIDEVILRLQHGK	not soluble
MDKAIIDIYYCRQCNWMLRSTWLSQELLHTFSEEIDTISLHPDTGGRFEIFCNGQQIWERKKDGGFPEAKVLKQRVRDIIDPERDLGHSDTKLEHHHHHH	soluble
MGSDKIHHHHHHMNSMDATAAHHTSPNATLVYDIRHSRYLNITGRCTLRCGFCPKQQGSRQIHQYQLALDKQPGVDDLLPLLGDVDTFDEYVFCGYGEPTLNLPTLLGVARAIKSQGGRIRVNTDGLGNLFHKRNILPELADCVDALSVSLNAQDEFTYLKHCQPRLKGSWQAVNDFIRMAPAYIKRVEVSAIDGLPGVDIPACRALVEAAGCTFKHRKLDIMG	not soluble
MEADVEQQALTLPDLAEQFAPPDIAPPLLIKLVEAIEKKGLECSTLYRTQSSSNLAELRQLLDCDTPSVDLEMIDVHVLADAFKRYLLDLPNPVIPAAVYSEMISLAPEVQSSEEYIQLLKKLIRSPSIPHQYWLTLQYLLKHFFKLSQTSSKNLLNARVLSEIFSPMLFRFSAASSDNTENLIKVIEILISTEWNERQPAPALPPKPPKPTTVAN	soluble
MARQSSSLKSFIYKDECYFYSKKCIKTLRLRLNEKGEFVLSIPYFCTFKSVYEFLDKSSSWMNEAKKRFEKKVLKDDELIFLAKKYKIIFDENTKKTYFDKDKIICQNKAKLDLFLRQNAKKIFTFYLKKWSQKTGLFYTHLSIKNMKTRWGSCNHNKAYVNLNLKLIQKSLRAIEYVILHEISHLKFPNHSKEFYTFIEHFMSDFRQREKEFLSLEHHHHHH	soluble
